Test results reported in PMC7026483.

Target: T1, GlxR-A131T A131T (Corynebacterium glutamicum WT (ATCC 13032?)) (UniProt Q79VI7)
T1 sequence: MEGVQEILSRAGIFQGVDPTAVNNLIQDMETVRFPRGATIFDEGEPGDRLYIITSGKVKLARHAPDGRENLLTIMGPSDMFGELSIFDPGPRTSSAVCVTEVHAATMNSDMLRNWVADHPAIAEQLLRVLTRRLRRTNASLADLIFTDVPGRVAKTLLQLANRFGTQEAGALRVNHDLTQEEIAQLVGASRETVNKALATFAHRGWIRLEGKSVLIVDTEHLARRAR
Experiment: EMSA
Details: EMSA: 100 ng DNA, 200 nM protein, with or without 0.2 mM cAMP, 30 min, room temperature, 10% native PAGE; binding buffer as in Bussmann et al. 2009 (not …)

Sequence | binding
CTTCCTGGCGAAATGTCCGTCAAATTGTGAACCCCTTCACACCTTTGGTTAAAAGTCACTGCCCACAAGTGACTGAACCTGGCAGCGACCTCATGAATTGTTTGAAAAACATTTTTTTTGGGCATGAAAAGGGGATACAG (double strand) [ctaD promoter fragment] | binds
GGTGGAAATATCTTCGTGGGTTTCGTTTTTAGGGGCGTCAAATGTCTTTCAACTGCAACGATATGCCCGAATCCTCAGGTGGAATACCTAAAGTCTAGGCAATTGGTGTATGCCACGTCACAGACCATCAAC (double strand) [ctaCF promoter fragment] | binds
